Reference: the supplement of paper PMC12764529
± gives the half width of the 95% confidence interval.

Experiments:
[1] = folding stability dG unfold from chymotrypsin proteolysis; higher = more stable
How it was run: (§1)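 Unfolding free energy was derived, per protease or combined, by relating Bayesian-fitted K50 values from sequencing counts to a sequence-predicted unfolded-state K50 and a shared folded-state K50. The underlying digests exposed cysteine-free mini-proteins under 80 residues, in a PA-tagged cDNA display construct, to trypsin and chymotrypsin at 11 threefold-diluted concentrations and to a no-protease condition. A filter kept only designs with AlphaFold2 dimer inter-PAE above 15.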

[2] = folding stability dG unfold from trypsin proteolysis; higher = more stable
How it was run: as §1

[3] = folding stability dG unfold (combined trypsin and chymotrypsin); higher = more stable
How it was run: as §1

| Sequence | folding stability dG unfold [1] | folding stability dG unfold [2] | folding stability dG unfold [3] |
| --- | --- | --- | --- |
| SAGGSAGGSAGGMTVERDPEKPVVTVTITDPSGASIVVEIPYETEEEAEAAVKKVIEELASAGGSAGGSAGG [r7_756_JUSTAS] | 1.53 ± 0.07 kcal/mol | 2.11 ± 0.091 kcal/mol | 1.83 ± 0.13 kcal/mol |
| SAGGSAGGSAGGMTVRITTPDGRVIEIPAKDLSPEQLAALKEAGFEVVSVEPGRVTIRLKSAGGSAGGSAGG [r7_496_TrROS_Hall] | 1.92 ± 0.036 kcal/mol | 0.865 ± 0.1 kcal/mol | 1.49 ± 0.13 kcal/mol |
| SAGGSAGGSAGGMTVTLKAPDGKWLTVPVDPEDPKAVKEAVEELAAKGHPVVEVSTDEKSAGGSAGGSAGGS [r10_231_JUSTAS] | 0.0542 ± 0.097 kcal/mol | 0.555 ± 0.025 kcal/mol | 0.355 ± 0.059 kcal/mol |
| SAGGSAGGSAGGMTVTTEKAAPSPRQVTVTTVYDPSTGTSVTIVTLPDGSLKVIPSGTLSAGGSAGGSAGGS [r10_996_JUSTAS] | -0.404 ± 0.22 kcal/mol | 0.193 ± 0.14 kcal/mol | -0.247 ± 0.23 kcal/mol |
| SAGGSAGGSAGGMVIVTFPDGSVREVEVLETEPDGTVVVAPPDRPVETLSGAGLTLTPVPSAGGSAGGSAGG [r7_823_JUSTAS] | -0.524 ± 0.13 kcal/mol | 1.19 ± 0.071 kcal/mol | 0.59 ± 0.07 kcal/mol |
| SAGGSAGGSAGGMVKITFEKDPNSDKGRVTLTDPNATVTLEYDSEEEAEKAIKERFPELESAGGSAGGSAGG [r7_841_JUSTAS] | 0.879 ± 0.02 kcal/mol | -0.364 ± 0.14 kcal/mol | 0.435 ± 0.088 kcal/mol |
| SAGGSAGGSAGGMVLVETEPLPDGGYRVLVVFPGTDEVRELYFSSSTTPEQVLDVVLAESAGGSAGGSAGGS [r10_825_TrMRF] | 2.233 ± 0.021 kcal/mol | 2.44 ± 0.059 kcal/mol | 2.34 ± 0.083 kcal/mol |
| SAGGSAGGSAGGMVVLENGDEVIVETFEFEEPVLDDVSEELREELGVVKVTVTKVTVIRRSAGGSAGGSAGG [r7_324_JUSTAS] | 1.15 ± 0.059 kcal/mol | 1.08 ± 0.069 kcal/mol | 1.11 ± 0.13 kcal/mol |
| SAGGSAGGSAGGMYKVTITVGGKEITIEVSEEELEELLKALEDEGYEIKEIRVEKLPEESAGGSAGGSAGGS [r10_405_TrROS_Hall] | 3.57 ± 0.097 kcal/mol | 3.91 ± 0.23 kcal/mol | 3.63 ± 0.11 kcal/mol |
| SAGGSAGGSAGGMYVLIKITNPKTKKEISILIKVKPGDKITFTLPNGAKVEIIELPPEESAGGSAGGSAGGS [r10_957_TrROS_Hall] | 4.28 ± 0.068 kcal/mol | 3.3 ± 0.13 kcal/mol | 3.92 ± 0.22 kcal/mol |
| SAGGSAGGSAGGNIEIFYFPDGYVVITIWDPDEGWRIVITAKIDPGDGKIKEMDIMPVPSAGGSAGGSAGGS [r10_613_TrROS] | 2.91 ± 0.13 kcal/mol | 2.67 ± 0.18 kcal/mol | 2.85 ± 0.19 kcal/mol |
| SAGGSAGGSAGGNKVTIPIHIPPGDPGNPEKAIEWAEHIAKELQEKNGGKDVDINIMPSPSAGGSAGGSAGG [r7_440_TrROS] | -0.595 ± 0.079 kcal/mol | 0.772 ± 0.1 kcal/mol | 0.174 ± 0.33 kcal/mol |
| SAGGSAGGSAGGNPLKGNFFRLKLELTLKVEVKIPKKGEKKTFPIKIELELDVPPDSILSAGGSAGGSAGGS [r10_133_TrMRF] | 3.98 ± 0.12 kcal/mol | 3.39 ± 0.26 kcal/mol | 3.69 ± 0.11 kcal/mol |
| SAGGSAGGSAGGNVIRVEKEPNTVVLYFPDGTYRVVEVEKKDESVKVLSEKVEPIVPGLLSAGGSAGGSAGG [r7_443_JUSTAS] | -0.177 ± 0.2 kcal/mol | 1.12 ± 0.024 kcal/mol | 0.702 ± 0.059 kcal/mol |
| SAGGSAGGSAGGNWYIIIYFPPGRKRIIPFDSPEEMREEMKENGMPIKIMPKEDAEKLLSAGGSAGGSAGGS [r10_66_TrROS] | 1.25 ± 0.052 kcal/mol | 0.848 ± 0.078 kcal/mol | 1.14 ± 0.084 kcal/mol |
| SAGGSAGGSAGGPAAGEKVVAVGVNPNGETSVREFTVHPDDPLGEVYTEDGTRWYFYPGTSAGGSAGGSAGG [r7_132_TrMRF] | 0.338 ± 0.23 kcal/mol | 0.303 ± 0.091 kcal/mol | 0.342 ± 0.15 kcal/mol |
| SAGGSAGGSAGGPAPKIDIEIIGVFKTGNRPILIIRFPDGAVIVIDLDSGEIGVIPPDQISAGGSAGGSAGG [r7_28_TrROS] | 2.24 ± 0.11 kcal/mol | 2.9 ± 0.19 kcal/mol | 2.66 ± 0.17 kcal/mol |
| SAGGSAGGSAGGPAVPVRTTLPDGRVVYYDPESGLTTIYVPETNETLVRDPATGTVTALSAGGSAGGSAGGS [r10_1057_JUSTAS] | 0.562 ± 0.04 kcal/mol | 1.26 ± 0.027 kcal/mol | 0.938 ± 0.036 kcal/mol |
| SAGGSAGGSAGGPDPEAYPFRYPDREFVLVRNPDEPDTYTILYPDDKVETVPAEDILPESAGGSAGGSAGGS [r10_556_TrMRF] | -0.0442 ± 0.098 kcal/mol | 0.473 ± 0.027 kcal/mol | 0.3 ± 0.06 kcal/mol |
| SAGGSAGGSAGGPEAVIEELKKAGYTPKVDPNSSVVTVTYKNPDGTILTKTINVPPSLLSAGGSAGGSAGGS [r10_1173_JUSTAS] | 1.59 ± 0.2 kcal/mol | -0.269 ± 0.25 kcal/mol | 1.16 ± 0.26 kcal/mol |
| SAGGSAGGSAGGPEIITFRNPGNGVTLMVWRTPNNITVSIYNPDGPQKEIPIPPGEPIFSAGGSAGGSAGGS [r10_976_TrROS] | 0.971 ± 0.36 kcal/mol | 0.833 ± 0.098 kcal/mol | 0.875 ± 0.19 kcal/mol |

| Sequence | folding stability dG unfold [1] | folding stability dG unfold [2] | folding stability dG unfold [3] |
| --- | --- | --- | --- |
| SAGGSAGGSAGGPEIVSAEVLAVFDDGKLVKVKLRVPTPGKGYRYLEAVFLVKPGEKLLSAGGSAGGSAGGS [r10_1183_TrMRF] | 2.12 ± 0.033 kcal/mol | 2.05 ± 0.052 kcal/mol | 2.1 ± 0.033 kcal/mol |
| SAGGSAGGSAGGPEKGKWKLVLVTMTIPLPPGASIPIPNGVWIYYTDGKIEIWFLMWVPDSAGGSAGGSAGG [r7_506_TrROS] | 5.07 ± 0.11 kcal/mol | 3.33 ± 0.15 kcal/mol | 4.8 ± 0.21 kcal/mol |
| SAGGSAGGSAGGPEVNIEVERYRLPNGGYLLVIRTSDGEEIVIEFDSPEEALKAAKEIAKSAGGSAGGSAGG [r11_955_TrMRF] | 2.04 ± 0.056 kcal/mol | 1.73 ± 0.035 kcal/mol | 1.93 ± 0.077 kcal/mol |
| SAGGSAGGSAGGPEWRWREFTIPGDPEEIKKLFPNFKILSPEPPPNGMRKVTIWIPPEDSAGGSAGGSAGGS [r10_764_TrROS] | 1.54 ± 0.079 kcal/mol | -0.0853 ± 0.6 kcal/mol | 1.27 ± 0.12 kcal/mol |
| SAGGSAGGSAGGPIITPKIRDALKAAGKDFSEEEIRGIAEGIAAIAIEKGYPDVVITADASAGGSAGGSAGG [r7_512_TrMRF] | 0.938 ± 0.018 kcal/mol | -0.259 ± 0.06 kcal/mol | 0.669 ± 0.045 kcal/mol |
| SAGGSAGGSAGGPIPGSTIPSVPVKIVNIHPDGTKTEYFNSDIPIDALKEKFPGEIEFESSAGGSAGGSAGG [r17_125_TrMRF] | 0.734 ± 0.029 kcal/mol | 0.562 ± 0.065 kcal/mol | 0.703 ± 0.065 kcal/mol |
| SAGGSAGGSAGGPKIVRIAGNPETGILIIEFENGEKKVIELKQEEADKLAKENPGVEVLTSAGGSAGGSAGG [r7_175_TrMRF] | 0.433 ± 0.056 kcal/mol | 1.03 ± 0.059 kcal/mol | 0.777 ± 0.11 kcal/mol |
| SAGGSAGGSAGGPKYKIEIEIKKIKVKVEKTVKYDGKTYKEEKEFEVLEIKIKIEPEGESAGGSAGGSAGGS [r10_118_TrROS_Hall] | 4.29 ± 0.21 kcal/mol | 3.19 ± 0.36 kcal/mol | 4.05 ± 0.29 kcal/mol |
| SAGGSAGGSAGGPNGKPLNLKIEIPKIEKIQRVNGRPVIRIPVRMTFPGKEVKMTIWIPISAGGSAGGSAGG [r7_739_TrROS] | 2.44 ± 0.048 kcal/mol | 2.13 ± 0.086 kcal/mol | 2.3 ± 0.095 kcal/mol |
| SAGGSAGGSAGGPNLQIMVMQTDNSLTVMIYLPEGWVIVYKITPMKIELEIMPLKDPDDSAGGSAGGSAGGS [r10_1169_TrROS] | 5.17 ± 0.32 kcal/mol | 3.98 ± 0.32 kcal/mol | 4.89 ± 0.28 kcal/mol |
| SAGGSAGGSAGGPNLRIKLKPYPDGKWKIDEIEVPDNHVTIPMRFGNGGEERKTMPPEQISAGGSAGGSAGG [r7_829_TrROS] | -0.484 ± 0.48 kcal/mol | 1.42 ± 0.065 kcal/mol | 0.666 ± 0.29 kcal/mol |
| SAGGSAGGSAGGPPDDWILMIEIVTITIEMKYKDGGKEVERKMEILVIEIAIIPPDDLPSAGGSAGGSAGGS [r10_300_TrROS] | 3.59 ± 0.29 kcal/mol | 2.21 ± 0.2 kcal/mol | 3.11 ± 0.37 kcal/mol |
| SAGGSAGGSAGGPPDEVVTTVTEIELPDDKVVTVTTTTVPGAGTTTTTVTTKPLTKPGVSSAGGSAGGSAGG [r11_695_JUSTAS] | 1.12 ± 0.029 kcal/mol | 2.5 ± 0.086 kcal/mol | 1.82 ± 0.047 kcal/mol |
| SAGGSAGGSAGGPPILLPKFDGSVKEVLTLPTEDRLLLVAYNPETGKLFVFEIKDPDEFSAGGSAGGSAGGS [r10_772_TrMRF] | 1.65 ± 0.063 kcal/mol | 0.694 ± 0.044 kcal/mol | 1.34 ± 0.14 kcal/mol |
| SAGGSAGGSAGGPPKPIKVLLYKPEENKLYVLVFPEGVSLEEVKKYVESHPNFKIVSVEGSAGGSAGGSAGG [r7_624_TrMRF] | 3 ± 0.051 kcal/mol | 2.04 ± 0.087 kcal/mol | 2.72 ± 0.11 kcal/mol |
| SAGGSAGGSAGGPPKWVIFIMIEIRPVTVEVYDPKNGEPLMEKPVWVIKIKIFLFKPGDFSAGGSAGGSAGG [r7_573_TrROS] | 4.82 ± 0.13 kcal/mol | 3.07 ± 0.081 kcal/mol | 4.54 ± 0.13 kcal/mol |
| SAGGSAGGSAGGPPPGQKVTMWVIRIEIKIKLERTPDGKLKLKIEIKISIVFITIYAPDSAGGSAGGSAGGS [r10_297_TrROS] | 4.87 ± 0.19 kcal/mol | 3.45 ± 0.13 kcal/mol | 4.6 ± 0.22 kcal/mol |
| SAGGSAGGSAGGPTITSSKIVAEYPGGKVIEVTIEEPLPTPSTVTKTVTLFIPEGSVLLSAGGSAGGSAGGS [r10_1183_JUSTAS] | 0.402 ± 0.15 kcal/mol | 0.536 ± 0.087 kcal/mol | 0.361 ± 0.34 kcal/mol |
| SAGGSAGGSAGGPTIVIKDVKGLTPEQAEALARDLLKELGLEDADVRLERGEDGDLTFTYSAGGSAGGSAGG [r7_810_TrMRF] | 0.79 ± 0.14 kcal/mol | 1.68 ± 0.034 kcal/mol | 1.26 ± 0.11 kcal/mol |
| SAGGSAGGSAGGPTVTVKVKLEDGSTATVTYDLDTGELYIEVNGKTYKFPLGSKVEIEEVSAGGSAGGSAGG [r7_434_TrROS_Hall] | 3.56 ± 0.054 kcal/mol | 2.39 ± 0.28 kcal/mol | 3.31 ± 0.17 kcal/mol |
| SAGGSAGGSAGGPVIEIKVPSKEDALEAARKLLEELFGKKPEDMKITVEYNPEDKTIKIKSAGGSAGGSAGG [r7_387_TrROS_Hall] | 1.28 ± 0.054 kcal/mol | 0.333 ± 0.063 kcal/mol | 0.986 ± 0.087 kcal/mol |
